B1: Serine/threonine-protein kinase VRK1 (Homo sapiens), Q99986 (parent)
chain: MPRVKAAQAGRQSSAKRHLAEQFAVGEIITDMAKKEWKVGLPIGQGGFGCIYLADMNSSESVGSDAPCVVKVEPSDNGPLFTELKFYQRAAKPEQIQKWIRTRKLKYLGVPKYWGSGLHDKNGKSYRFMIMDRFGSDLQKIYEANAKRFSRKTVLQLSLRILDILEYIHEHEYVHGDIKASNLLLNYKNPDQVYLVDYGLAYRYCPEGVHKEYKEDPKRCHDGTIEFTSIDAHNGVAPSRRGDLEILGYCMIQWLTGHLPWEDNLKDPKYVRDSKIRYRENIASLMDKCFPEKNKPGEIAKYMETVKLLDYTEKPLYENLRDILLQGLKAIGSKDDGKLDLSVVENGGLKAKTITKKRKKEIEESKEPGVEDTEWSNTQTEEAIQTRSRTRKRVQK

Variants of B1 are the subject of one experiment. The conditions noted are these: with aurkb_human AURKB.
As for K179E, the “effect of a mutation on the interaction” value is on record as “increasing interaction strength”.

Variants of B1 are the subject of another experiment. The conditions noted are these: with aurkb_human AURKB. This is another data set of the same source.
Take K179E: the “effect of a mutation on the interaction” value is “disrupting interaction strength”.

(Values after IntAct's records for PubMed 29340707.)
